Experimental data taken from US20220202899A1, “COMPOSITION FOR PREVENTION OR TREATMENT OF HAIR LOSS INCLUDING HAPLN1” (HAPLNSCIENCE INC., priority 2019, published 2022).

Assays:
TβRII [1] = assay: TβRII protein after exogenous HAPLN1 and/or HA in endogenous HAPLN1-deficient human hair germinal matrix cells; format: cell-based; conditions: after HAPLN1 siRNA; HAPLN1 25 ng/mL and/or HA 25 μg/mL; TGF-β2 2 ng/mL, 23 hours
Method: (§1) The human hair germinal matrix cells were dispensed into a poly-D-lysine 6-well plate at a concentration of 5.0×10^4 per well and cultured for 24 hours. After 24 hours, the medium was removed and replaced with a low-serum medium. HAPLN1 siRNA and scrambled siRNA were added at a concentration of 25 pmol per well and incubated for 24 hours. After the siRNA and the medium were all removed, the medium was replaced with a serum-free medium having HAPLN1 (25 ng/mL) or HA (25 μg/mL) added thereto, and cultured for 1 hour. TGF-β2 (2 ng/mL) was treated and incubated for 23 hours. After collecting cells, a lysis buffer (25 mM Tris-HCl, 1 mM EDTA, 0.1% Triton-X100, phosphatase inhibitor, and protease inhibitor) was added, and all the cells were broken through sonication. TβRII in the sample was measured using Western blotting. The optical density of TβRII was compared to that of GAPDH using a densitometer.

hair growth cycle = assay: Intraperitoneal systemic administration of HAPLN1, mouse hair growth; format: in vivo; conditions: 20-month-old C57 mice; 0.1 mg/kg intraperitoneally once every 3 days
Method: HAPLN1 in the body decreases with age. HAPLN1 was administered to 20-month-old C57 mice with a decrease in HAPLN1 in the body.
Since C57 mice had different hair growth cycles, the cycles of all mice were uniformly adjusted through two hair growth cycles (see the schedule of FIG. 19). Thereafter, HAPLN1 was injected intraperitoneally at 0.1 mg/kg once every 3 days.

cell membrane TβRII = assay: Cell membrane TβRII protein (biotin labelling, immunoprecipitation, Western blotting); format: cell-based, human; conditions: HAPLN1 25 ng/mL and/or HA 25 μg/mL; TGF-β2 2 ng/mL
Method: All proteins present in the cell membrane were labeled with biotin, and immunoprecipitation was performed with a biotin antibody to isolate only the cell membrane protein. In order to confirm changes in the ratio of TβRII among cell membrane proteins, Western blotting was performed. The specific experimental method will now be described.
Human hair germinal matrix cells were dispensed into a poly-D-lysine 100 mm dish at a concentration of 2.7×10^6 and cultured for 24 hours. After 24 hours, the medium was removed and replaced with a new serum-free medium. HAPLN1 was treated with 25 ng/mL and HA with 25 μg/mL, and after 1 hour, TGF-β2 (2 ng/mL) was treated. To label biotin after 23 hours, EZ-Link™ Sulfo-NHS-LC-Biotin (Thermo Fisher Scientific, MA, USA) was treated at a concentration of 250 μg/mL and incubated at 4° C. for 1 hour. The biotin labeling reaction was terminated by treatment with 50 mM Tris-HCl. After collecting cells, a lysis buffer (50 mM Tris-HCl, 150 mM NaCl, 1% NP-40, phosphatase inhibitor, and protease inhibitor) was added, and all the cells were broken through sonication. Cell membrane proteins were isolated by performing immunoprecipitation experiments using anti-biotin antibodies. TβRII in the isolated membrane protein sample was measured using Western blotting. The optical density of TβRII was compared to that of GAPDH using a densitometer.

[2] = system: human hair germinal matrix cells; assay: Hair germinal matrix cell proliferating effect, CCK-8 (Example 13); format: cell-based; conditions: 25 ng/ml
Method: In the same manner as described above, HAPLN1 (25 ng/ml), CX3CL1 (25 ng/ml), CDON (25 ng/ml) or minoxidil (10 μM), and human recombinant TGF-β2 were diluted to a final concentration of 2 ng/ml, and the medium of the group containing TGF-β2 was replaced by 200 μl. To reduce an experimental variation, 3 wells per group were treated (triplication).
After incubation for 23 hours, the plate was removed from the incubator, and 20 μl of CCK-8 (WST-8) solution was added to the plate containing the medium and the reagent per 200 μl of the medium for the reaction to be carried out at 37° C. for 1 hour.
Human hair germinal matrix cells were released in a poly-D-lysine-coated flask using a mesenchymal stem cell medium (MSCM), and cultured in a 5% CO2 incubator at 37° C. When the cells were about 90% full, the cells were detached with a 0.05% Trypsin/EDTA solution, and then only the cells were recovered by centrifugation at 1000 rpm for 3 minutes. The recovered cells were dispensed into 96-well poly-D-lysine coated plates (BD bioscience) at 2.0×10^3 per well and cultured for 24 hours, and the final concentrations of HAPLN1, CX3CL1 and CDON were diluted to 25 ng/ml in a serum-free medium. The subsequent process was performed in the same manner as the experiment for the dermal papilla cells to measure the absorbance, and the results are shown in FIG. 22.

p-ERK1/2 = p-ERK1/2 in human hair germinal matrix cells stimulated with TGF-β2 (Western blotting); format: cell-based; conditions: TGF-β2 2 ng/mL, 1 hour
Method: Human hair germinal matrix cells were dispensed into a poly-D-lysine 6-well plate at a concentration of 5.0×10^4 per well and cultured for 24 hours. After 24 hours, the medium was removed and replaced with a new serum-free medium. HAPLN1 was treated with 25 ng/mL and HA with 25 μg/mL, incubated for 23 hours, and then stimulated with TGF-β2 (2 ng/mL) for 1 hour. After collecting cells, a lysis buffer (25 mM Tris-HCl, 1 mM EDTA, 0.1% Triton-X100, phosphatase inhibitor, and protease inhibitor) was added, and all the cells were broken through sonication. p-ERK1/2, p-Smad2, p-MEK1/2, and p-c-Raf in the sample were measured using Western blotting. Optical densities of p-ERK1/2, p-Smad2, p-MEK1/2, and p-c-Raf were compared to those of ERK1/2, Smad2/3, MEK1, and c-Raf using a densitometer. Here, ERK1/2, Smad2/3, MEK1, and c-Raf were used as loading controls.

TβRII [3] = assay: TβRII protein after HAPLN1 and/or HA in CD44-deficient human hair germinal matrix cells; format: cell-based; conditions: after CD44 siRNA; HAPLN1 25 ng/mL and/or HA 25 μg/mL; TGF-β2 2 ng/mL, 23 hours
Method: as §1, with “matrix cells, which were made to be deficient in CD44 by using CD44 siRNA,” for “matrix cells”, “medium. CD44” for “medium. HAPLN1”

B1: hyaluronan and proteoglycan link protein 1 (protein, UniProt P10915 16-354, looked up)
Hyaluronan and proteoglycan …: DHLSDNYTLDHDRAIHIQAENGPHLLVEAEQAKVFSHRGGNVTLPCKFYRDPTAFGSGIHKIRIKWTKLTSDYLKEVDVFVSMGYHKKTYGGYQGRVFLKGGSDSDASLVITDLTLEDYGRYKCEVIEGLEDDTVVVALDLQGVVFPYFPRLGRYNLNFHEAQQACLDQDAVIASFDQLYDAWRGGLDWCNAGWLSDGSVQYPITKPREPCGGQNTVPGVRNYGFWDKDKSRYDVFCFTSNFNGRFYYLIHPTKLTYDEAVQACLNDGAQIAKVGQIFAAWKILGYDRCDAGWLADGSVRYPISRPRRRCSPTEAAVRFVGFPDKKHKLYGVYCFRAYN
notes: extracellular matrix protein found in cartilage; stabilizes aggregates of hyaluronic acid and proteoglycans
TβRII protein in endogenous HAPLN1-deficient cells (TβRII [1]): recovered | entry into the anagen phase (hair growth cycle): entered the anagen phase in a short period of time | cell membrane TβRII protein concentration (cell membrane TβRII): increased | hair germinal matrix cell proliferation (absorbance at 450 nm) ([2]; absence of TGF-β2): significant hair germinal matrix cell proliferating activity | hair germinal matrix cell proliferation (absorbance at 450 nm) ([2]; presence of TGF-β2 (2 ng/ml)): particularly superior hair germinal matrix cell proliferating activity | ERK1/2 signaling (p-ERK1/2 compared to ERK1/2) (p-ERK1/2; HAPLN1 25 ng/mL and/or HA 25 μg/mL, 23 hours): activated | ERK1/2 signaling, HAPLN1 treated together with HA (p-ERK1/2; HAPLN1 25 ng/mL with HA 25 μg/mL): enhanced the activation of ERK1/2 signaling of HA | TβRII protein in CD44-deficient cells (TβRII [3]): not confirmed that TβRII was recovered
